Two proteins from publication PMC3335857, “Heme Oxygenase Isoforms Differ in Their Subcellular Trafficking during Hypoxia and Are Differentially Modulated by Cytochrome P450 Reductase” (PLoS ONE, 2012) can be followed below.

This data set concerns the molecule itself. The data set is described as follows: SEC; 150 µg purified S-HO variant (expressed alone, or full length S-HO co-expressed and co-purified with CPR) on Superdex 200 10/300 GL; 50 mM TEA-HCl, 250 mM NaCl, pH 8.0; peaks blotted with HO antibodies. On the technique in general: SEC sorts molecules by how far they enter the pores of the column.

B1: Strep-tagged full length heme oxygenase-2 (S-HO-2) (enzyme, human, UniProt P30519 1-316, looked up)
chain: MSAEVETSEGVDESEKKNSGALEKENQMRMADLSELLKEGTKEAHDRAENTQFVKDFLKGNIKKELFKLATTALYFTYSALEEEMERNKDHPAFAPLYFPMELHRKEALTKDMEYFFGENWEEQVQCPKAAQKYVERIHYIGQNEPELLVAHAYTRYMGDLSGGQVLKKVAQRALKLPSTGEGTQFYLFENVDNAQQFKQLYRARMNALDLNMKTKERIVEEANKAFEYNMQIFNELDQAGSTLARETLEDGFPVHDGKGDMRKCPFYAAEQDKGALEGSSCPFRTAMAVLRKPSLQFILAAGVALAAGLLAWYYM
notes: human heme oxygenase 2 (HO-2), cloned from human placenta cDNA, full length; also called full length HO-2; source: Sf9, recombinant baculovirus; not shown: Strep-tag II, N-terminal, kept
Consider B1, for which the binding result is on record as “binds”.

B2: Strep-tagged full length heme oxygenase-1 (S-HO-1) (enzyme, human, UniProt P09601 1-288, looked up)
chain: MERPQPDSMPQDLSEALKEATKEVHTQAENAEFMRNFQKGQVTRDGFKLVMASLYHIYVALEEEIERNKESPVFAPVYFPEELHRKAALEQDLAFWYGPRWQEVIPYTPAMQRYVKRLHEVGRTEPELLVAHAYTRYLGDLSGGQVLKKIAQKALDLPSSGEGLAFFTFPNIASATKFKQLYRSRMNSLEMTPAVRQRVIEEAKTAFLLNIQLFEELQELLTHDTKDQSPSRAPGLRQRASNKVQDSAPVETPRGKPPLNTRSQAPLLRWVLTLSFLVATVAVGLYAM
notes: human heme oxygenase 1 (HO-1), cloned from human placenta cDNA, full length; also called full length HO-1; source: Sf9, recombinant baculovirus; not shown: Strep-tag II, N-terminal, kept
Consider B2, for which the binding result is “binds”.
